# ± gives the standard deviation of the averaged measurements.
# Test system: Saccharomyces cerevisiae
# Assay: protein stability index of tFT-peptide fusion (C-terminal peptide) (PSI (0-1 scale)); higher = more stable (slower turnover)
# Settings: genetic background: wild type; temperature: 30 C
# Procedure: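 Multiplexed protein stability (MPS) profiling in S. cerevisiae. Random 12-aa peptides (tFT-X12 library) are fused to the C-terminus of a sfGFP-mCherry tandem fluorescent timer, after mCherry and a GGGS linker. Cells are FACS-sorted into 8 mCherry/sfGFP bins and deep-sequenced. The protein stability index (PSI) is the read-weighted bin average, scaled from 0 (unstable) to 1 (stable). Only peptides with >10 reads are reported; cells were grown at 30 °C in SC-His with glucose.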
# 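Further: PSI is a weighted mean of sequencing reads over stability bins, variants kept only with over 10 reads, mCherry proximal and sfGFP distal, peptide attached via GGGS linker.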
row,Sequence,protein stability index
1,GFETGLGKGAGW,0.714 ± 0.019
2,LRVFKVCSGISG,0.642 ± 0.045
3,FGGNISIPRSCD,0.7233 ± 0.004
4,DPPSPLPRVSPP,0.706 ± 0.068
5,ASNEPQRQELGS,0.693 ± 0.018
6,NLRKGHSDERVV,0.691 ± 0.071
7,VYSPVEHLLATF,0.59 ± 0.1
8,NHTLPGTRSSVW,0.684 ± 0.09
9,LSRHSRSILPSL,0.726 ± 0.056
10,KTKNEKHPKTTK,0.766 ± 0.045
11,KEQKNNRKVTKK,0.715 ± 0.046
12,SPRFVPPPAILR,0.558 ± 0.0088
13,GFISFASRISTS,0.722 ± 0.032
14,RGASDYARMSAF,0.7047 ± 0.0037
15,FFPPPPPATPPA,0.663 ± 0.072
16,WAFGSTVSSGIV,0.689 ± 0.017
17,VFRFCCQTGALR,0.671 ± 0.02
18,LERSTCYPREPM,0.69 ± 0.1
19,RPPRNLDPSVSI,0.646 ± 0.13
20,LPAPSPAVPSPP,0.668 ± 0.033
21,SDPPPPPDPPSP,0.673 ± 0.032
22,PHPHLPAPTPRT,0.702 ± 0.0079
23,NIKEKRNKKKRR,0.677 ± 0.073
24,RGARGIGVRLRV,0.651 ± 0.026
25,LWKLLNTVKNAA,0.62 ± 0.01

row,Sequence,protein stability index
1,KVGGRGQGVKLG,0.629 ± 0.034
2,LRRSPPNPLLKA,0.634 ± 0.021
3,FPPTGPPYFPPT,0.615 ± 0.062
4,LPPPPLPPPVFP,0.74 ± 0.018
5,PLPPPFPGSALL,0.727 ± 0.01
6,CDSSSVGYLVVR,0.655 ± 0.014
7,DEGLLPLPAVIP,0.746 ± 0.04
8,PPPAPPHPPLRH,0.682 ± 0.027
9,ICGAGPKCCCSV,0.635 ± 0.051
10,PSPPPLPPLPPP,0.764 ± 0.12
11,RTRPALPSPPPH,0.725 ± 0.022
12,SLPGAPSPPHPL,0.744 ± 0.0095
13,GPPPRCKYLRAS,0.6348 ± 0.00079
14,GVDKQSGTRNIK,0.704 ± 0.0068
15,SLFSPSQLQSFS,0.718 ± 0.012
16,HICFPALKPGGA,0.6401 ± 0.0039
17,KIKNYNSGKIKK,0.716 ± 0.024
18,GWVNKQVVTEAH,0.728 ± 0.085
19,SKDVLPGDDNVI,0.656 ± 0.073
20,PPPILFTEPPLA,0.738 ± 0.0049
21,ASSLKSTQVSGV,0.72769 ± 0.00011
22,REPPFFRLSPQV,0.722 ± 0.042
23,PPRRPPLAPPPP,0.693 ± 0.019
24,GGAWRGWCVGVR,0.644 ± 0.1
25,GPRRLNAYADPF,0.722 ± 0.082

row,Sequence,protein stability index
1,SRRLAFSTVLPA,0.664 ± 0.035
2,ARGAPVSGRAGG,0.6574 ± 0.005
3,LVLDVLDLRRHC,0.649 ± 0.012
4,GGLRRMGVRPCA,0.715 ± 0.21
5,IALVFCPMNGRI,0.686 ± 0.014
6,GFEIFYLVLGIP,0.52979 ± 0.00023
7,SWTWLFGFRRGL,0.746 ± 0.11
8,HSTGPRPKLGCQ,0.827 ± 0.019
9,KKGYKTVETRIS,0.69 ± 0.082
10,NAKGRKQTGKRK,0.695 ± 0.035
11,PSRGPGRVAPCD,0.641 ± 0.013
12,VFVPPPPSPSSL,0.683 ± 0.01
13,CLPHSLPHPPPH,0.6791 ± 0.0056
14,PVRVRGRGGCGG,0.684 ± 0.11
15,AQERDGAIKKTH,0.7 ± 0.033
16,KIKEKNEKRELI,0.686 ± 0.11
17,SKLAVWVGERGF,0.759 ± 0.02
18,LGKGRYNIKINK,0.695 ± 0.016
19,AYFLPPLPTTPP,0.692 ± 0.054
20,HDSAGVCFHYWL,0.644 ± 0.011
21,AGTALVFNGSKA,0.7209 ± 0.0045
22,RRKSEYAYNTKN,0.565 ± 0.036
23,FLRGSSKSISAR,0.677 ± 0.061
24,LDINWVGGAPEV,0.727 ± 0.042
25,WDGAGGGFGLVV,0.726 ± 0.061

row,Sequence,protein stability index
1,RNTPTATHHTTG,0.681 ± 0.026
2,DVRVFQMLQGDI,0.709 ± 0.012
3,PPPTPSGPHPAP,0.672 ± 0.028
4,GGGGGVSGGGVF,0.672 ± 0.063
5,VEAIKTSMFFLW,0.711 ± 0.055
6,PPPPPPLSSPFP,0.643 ± 0.032
7,NPTPPNLRSNLF,0.6877 ± 0.0055
8,DRLNLFSSFEGT,0.721 ± 0.053
9,SRVSRGEWGVGI,0.659 ± 0.023
10,CSSTCRCCAAFD,0.641 ± 0.0086
11,IFLLLHSPSSAS,0.697 ± 0.014
12,SKPPLPTRLPRP,0.7056 ± 0.0032
13,GRRGRWCAGQWG,0.6743 ± 0.0062
14,TGRERLAEGDWR,0.692 ± 0.019
15,LLRLVFHLETSS,0.547 ± 0.081
16,ASLLLVFSPPIS,0.703 ± 0.043
17,GIGKADSKRERS,0.652 ± 0.00097
18,KKENKSKKIINR,0.568 ± 0.028
19,ALFVVLSGLSLR,0.616 ± 0.017
20,DSNLAVHRWYIS,0.573 ± 0.018
21,KNKNKKTPARYR,0.692 ± 0.015
22,MLGRLLDRCYDY,0.678 ± 0.029
23,KMNKTEYINGMT,0.652 ± 0.038
24,CVGCVVGAGVTS,0.684 ± 0.049
25,TRNGQKVGGVGA,0.725 ± 0.029

row,Sequence,protein stability index
1,LTPSVRDKRPPI,0.759 ± 0.055
2,PPDSSPLGGEVG,0.6775 ± 0.0058
3,LCQWLIEFTVLF,0.515 ± 0.025
4,YRLRAFLSMTQQ,0.616 ± 0.01
5,KGVEVPGERMVG,0.742 ± 0.021
6,SDHVYHFRLTRV,0.709 ± 0.076
7,ISPCCGVPWLLR,0.708 ± 0.025
8,ITLLYFAGVSVL,0.513 ± 0.0074
9,VGVGGGSVASCV,0.671 ± 0.018
10,LLLLDLWLPSVL,0.76 ± 0.059
11,VMFACAGVETRR,0.745 ± 0.037
12,KSRRTTMINIRC,0.668 ± 0.016
13,PAPPSPPPPLYP,0.721 ± 0.046
14,RNRGPAIRVRRK,0.635 ± 0.089
15,PPPFRTPPSRRP,0.739 ± 0.057
16,SGAGGGGWGGGV,0.7535 ± 0.0062
17,KTKKRHKENRKE,0.791 ± 0.067
18,ILFKSTRAICSL,0.621 ± 0.051
19,QLFAYFLGAVIL,0.611 ± 0.023
20,CGVEERRIGGVC,0.725 ± 0.034
21,VFSLPFPSRSPL,0.805 ± 0.028
22,PSCFFPFPPRPL,0.727 ± 0.04
23,PDVNLVRRVMSL,0.596 ± 0.053
24,GEGVPVWNQCVE,0.658 ± 0.0091
25,EDDQETPDTVQS,0.66 ± 0.014

row,Sequence,protein stability index
1,DRGCRRRCVGGG,0.683 ± 0.011
2,PGSFDLSDLAFA,0.707 ± 0.073
3,GGVLLPGFSHLL,0.7133 ± 0.0068
4,SVLVCSAIVIRK,0.5998 ± 0.00079
5,PIAPDPAPVGLD,0.721 ± 0.014
6,FRLGIKFYTLAV,0.514 ± 0.01
7,GRWRIVSLEELQ,0.724 ± 0.035
8,LRVNGIVTVSGF,0.749 ± 0.13
9,SWPDVCLTSPLS,0.731 ± 0.042
10,VGVCVGWDGRLW,0.691 ± 0.025
11,CSDRRVAGGRGG,0.676 ± 0.073
12,VPGQRRPSQSPR,0.653 ± 0.21
13,YGGGGWRGVALG,0.65 ± 0.043
14,MSFFPCVFSGFG,0.738 ± 0.033
15,RGRGRGGPLSGG,0.731 ± 0.017
16,RAGVFLPSGVAI,0.663 ± 0.011
17,VGGCVVSFSANR,0.657 ± 0.043
18,KRGKRKEGGKAR,0.687 ± 0.065
19,APPPLPPPTLPT,0.757 ± 0.041
20,LLFSPTHEPRIW,0.734 ± 0.075
21,HVPQPNTVCPHL,0.754 ± 0.033
22,WGFLCVALGRWV,0.644 ± 0.038
23,WGGQRGWVEVWR,0.683 ± 0.04
24,SKKDMWMFVGEG,0.722 ± 0.032
25,PRAPRLQAPGPG,0.75233 ± 0.00055

row,Sequence,protein stability index
1,CQYSRRRRQELH,0.65 ± 0.075
2,WFFVADVFKSWL,0.704 ± 0.039
3,EFEDCGAWGNIG,0.621 ± 0.039
4,PRKISSFESSLT,0.629 ± 0.086
5,THTDQKTNHRRQ,0.69 ± 0.05
6,ATRSTLHDSMVS,0.714 ± 0.059
7,CSLEREKLQEQQ,0.689 ± 0.022
8,RGDGAGQARGVV,0.684 ± 0.053
9,MSKTIEREGNMI,0.735 ± 0.034
10,PRPPARPPLRLL,0.719 ± 0.017
11,MREAQAFRCLYG,0.636 ± 0.0019
12,EQNRINLNRSGL,0.762 ± 0.23
13,EQENATDRRGRE,0.644 ± 0.026
14,CEAGAGTGGADL,0.674 ± 0.018
15,NVYSVRGPWYGG,0.6604 ± 0.0059
16,WAERESLNGLSA,0.718 ± 0.027
17,CTLVSREHFGFL,0.685 ± 0.041
18,EAERDEAQRRCA,0.686 ± 0.0076
19,KKNAFIYKRRPR,0.714 ± 0.04
20,DWVYISAGGRYA,0.657 ± 0.017
21,AACLCATYPVGT,0.752 ± 0.07
22,REGVELTRPVTC,0.696 ± 0.041
23,PPPPPLPLDYPP,0.638 ± 0.025
24,GGENGLGGLGVG,0.626 ± 0.14
25,TVQPGAVRFILF,0.703 ± 0.028

row,Sequence,protein stability index
1,GLPWRRVGGGAG,0.644 ± 0.013
2,KNKKFKKDEKTR,0.773 ± 0.059
3,LFANGSGSSTSR,0.715 ± 0.031
4,FGRDTDIYLASL,0.691 ± 0.037
5,PSGPSTVLPSPL,0.6866 ± 0.0065
6,LFLLALFPPPAS,0.738 ± 0.013
7,EVIRGNEGGKER,0.708 ± 0.018
8,PPPPPPPLPLLP,0.667 ± 0.036
9,SLPPFPLHSFPV,0.694 ± 0.24
10,AGLLGVVGGRFG,0.6993 ± 0.00076
11,AHQEAIIPTIGK,0.694 ± 0.087
12,SCSHYLPAPLPF,0.577 ± 0.0074
13,SCLVWTWVSSVL,0.573 ± 0.067
14,VRTLGPLRPEGL,0.74 ± 0.068
15,AKDSSPTFTSPH,0.673 ± 0.032
16,IVCLWVAGHFGL,0.602 ± 0.014
17,IAGRPSSGFPLL,0.686 ± 0.066
18,SPAPRPSPVPGL,0.686 ± 0.015
19,VFLCNGVGGRGG,0.681 ± 0.27
20,RLVAGETWAMSR,0.674 ± 0.0045
21,RPAFPIPSLYPS,0.725 ± 0.11
